# Reference: article PMC7954794, “Protein context shapes the specificity of SH3 domain-mediated interactions in vivo” (Nature Communications, 2021)
# Tested on: Abp1 PPIs
# Test: DHFR-PCA of Abp1 SH3-swapped baits (Fig. 2B-D, S2C, S2F);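 for Protein-protein interaction distance between Abp1 SH3-swapped baits, to ABP1: Euclidean distance between DHFR-PCA score profiles of the baits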;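 for Protein-protein interaction distance between Abp1 SH3-swapped baits, to BEM1-2: Euclidean distance between DHFR-PCA score profiles of the baits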;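 for Protein-protein interaction distance between Abp1 SH3-swapped baits, to BOI1: Euclidean distance between DHFR-PCA score profiles of the baits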;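 for Protein-protein interaction distance between Abp1 SH3-swapped baits, to BZZ1-1: Euclidean distance between DHFR-PCA score profiles of the baits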
# Format: cell-based, Saccharomyces cerevisiae
# Summary of the method: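 Interactions were scored by DHFR protein-fragment complementation. DHFR F[1,2]-tagged Abp1 strains, whose SH3 was swapped for yeast or human ortholog domains, were crossed on YPD at 30 °C for 48 h with a 1536-format array of 575 prey-DHFR F[3] strains and 40 negatives, giving four replicates per pair. PCA selection lasted 4 days after double diploid selection.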
# [1] = number of PPIs, difference, Abp1 SH3-swapped with the listed SH3, Fig2D,S2F
molecule,measurement,setting,value
"PEX13 (protein, UniProt P80667 1-386, looked up) Peroxisomal membrane protein …: MSSTAVPRPKPWETSASLEEPQRNAQSLSAMMTSNQQDSRPTEESNNSNSASESAPEVLPRPAALNSSGTYGESNTIPGIYGNSNYGIPYDNNPYSMNSIYGNSIGRYGYGGSYYGNNYGSFYGGGYGAGAGYGMNNGSGLGESTKATFQLIESLIGAVTGFAQMLESTYMATHNSFFTMISVAEQFGNLKEMLGSFFGIFAIMKFLKKILYRATKGRLGIPPKNFAESEGSKNKLIEDFQKFNDSGTINSNEKATRRKISWKPLLFFLMAVFGFPYLLNKFITKLQTSGTIRASQGNGSEPIDPSKLEFARALYDFVPENPEMEVALKKGDLMAILSKKDPLGRDSDWWKVRTKNGNIGYIPYNYIEIIKRRKKIEHVDDETRTH","Protein-protein interaction distance between Abp1 SH3-swapped baits, to ABP1","Abp1 bait with swapped SH3, distance to bait with ABP1 SH3, sheet Fig2C",10.96
same,"Protein-protein interaction distance between Abp1 SH3-swapped baits, to BBC1","distance to Abp1 bait with BBC1 SH3, sheet Fig2C",10.86
same,"Protein-protein interaction distance between Abp1 SH3-swapped baits, to BEM1-1","distance to Abp1 bait with BEM1-1 SH3, sheet Fig2C",16.62
same,"Protein-protein interaction distance between Abp1 SH3-swapped baits, to BEM1-2","distance to Abp1 bait with BEM1-2 SH3, sheet Fig2C",35.19
same,"Protein-protein interaction distance between Abp1 SH3-swapped baits, to BOI1","distance to Abp1 bait with BOI1 SH3, sheet Fig2C",13.22
same,"Protein-protein interaction distance between Abp1 SH3-swapped baits, to BOI2","distance to Abp1 bait with BOI2 SH3, sheet Fig2C",16.99
same,"Protein-protein interaction distance between Abp1 SH3-swapped baits, to BUD14","distance to Abp1 bait with BUD14 SH3, sheet Fig2C",19.91
same,"Protein-protein interaction distance between Abp1 SH3-swapped baits, to BZZ1-1","distance to Abp1 bait with BZZ1-1 SH3, sheet Fig2C",7.297
same,"Protein-protein interaction distance between Abp1 SH3-swapped baits, to BZZ1-2","distance to Abp1 bait with BZZ1-2 SH3, sheet Fig2C",13.09
same,"Protein-protein interaction distance between Abp1 SH3-swapped baits, to CDC25","distance to Abp1 bait with CDC25 SH3, sheet Fig2C",29.16
same,"Protein-protein interaction distance between Abp1 SH3-swapped baits, to CTTN","distance to Abp1 bait with CTTN SH3, sheet Fig2C",14.16
same,"Protein-protein interaction distance between Abp1 SH3-swapped baits, to CYK3","distance to Abp1 bait with CYK3 SH3, sheet Fig2C",29.86
same,"Protein-protein interaction distance between Abp1 SH3-swapped baits, to DBNL","distance to Abp1 bait with DBNL SH3, sheet Fig2C",7.699
same,"Protein-protein interaction distance between Abp1 SH3-swapped baits, to FUS1","distance to Abp1 bait with FUS1 SH3, sheet Fig2C",21.37
same,"Protein-protein interaction distance between Abp1 SH3-swapped baits, to HCLS1","distance to Abp1 bait with HCLS1 SH3, sheet Fig2C",8.5
same,"Protein-protein interaction distance between Abp1 SH3-swapped baits, to HOF1","distance to Abp1 bait with HOF1 SH3, sheet Fig2C",33.79
same,"Protein-protein interaction distance between Abp1 SH3-swapped baits, to HSE1","distance to Abp1 bait with HSE1 SH3, sheet Fig2C",8.715
same,"Protein-protein interaction distance between Abp1 SH3-swapped baits, to LSB1","distance to Abp1 bait with LSB1 SH3, sheet Fig2C",6.728
same,"Protein-protein interaction distance between Abp1 SH3-swapped baits, to LSB3","distance to Abp1 bait with LSB3 SH3, sheet Fig2C",7.361
same,"Protein-protein interaction distance between Abp1 SH3-swapped baits, to MYO3","distance to Abp1 bait with MYO3 SH3, sheet Fig2C",8.874
same,"Protein-protein interaction distance between Abp1 SH3-swapped baits, to MYO5","distance to Abp1 bait with MYO5 SH3, sheet Fig2C",7.969
same,"Protein-protein interaction distance between Abp1 SH3-swapped baits, to NBP2","distance to Abp1 bait with NBP2 SH3, sheet Fig2C",19.13
same,"Protein-protein interaction distance between Abp1 SH3-swapped baits, to PEX13","distance to Abp1 bait with PEX13 SH3, sheet Fig2C",0.00
same,"Protein-protein interaction distance between Abp1 SH3-swapped baits, to PIN3","distance to Abp1 bait with PIN3 SH3, sheet Fig2C",5.433
same,"Protein-protein interaction distance between Abp1 SH3-swapped baits, to RVS167","distance to Abp1 bait with RVS167 SH3, sheet Fig2C",4.587
same,"Protein-protein interaction distance between Abp1 SH3-swapped baits, to SDC25","distance to Abp1 bait with SDC25 SH3, sheet Fig2C",35.86
same,"Protein-protein interaction distance between Abp1 SH3-swapped baits, to SHO1","distance to Abp1 bait with SHO1 SH3, sheet Fig2C",8.672
same,"Protein-protein interaction distance between Abp1 SH3-swapped baits, to SLA1-1","distance to Abp1 bait with SLA1-1 SH3, sheet Fig2C",31.78
same,"Protein-protein interaction distance between Abp1 SH3-swapped baits, to SLA1-2","distance to Abp1 bait with SLA1-2 SH3, sheet Fig2C",21.86
same,"Protein-protein interaction distance between Abp1 SH3-swapped baits, to SLA1-3","distance to Abp1 bait with SLA1-3 SH3, sheet Fig2C",6.985
same,"Protein-protein interaction distance between Abp1 SH3-swapped baits, to YSC84","distance to Abp1 bait with YSC84 SH3, sheet Fig2C",7.848
same,PPIs gained by Abp1 - SH3-dependent PPIs gained by Abp1,[1],23
same,SH3-dependent PPIs - SH3-dependent PPIs gained by Abp1,[1],0
same,SH3-dependent PPIs gained by Abp1,"number of PPIs, Abp1 SH3-swapped with the listed SH3, DHFR-PCA, Fig2D,S2F",1
